Laboratory results reported in publication PMC7538550.

Molecular target: FMDV A2001 Argentina capsid protomer (VP0, VP3 and VP1 cut from the polyprotein P12A by protease 3C) (Foot-and-mouth disease virus, serotype A, A2001 Argentina strain)
Assay: sucrose gradient ultracentrifugation with ELISA of the fractions

Substance: FMDV A2001 Argentina capsid protomer (VP0, VP3 and VP1 cut from the polyprotein P12A by protease 3C) (complex)
- percent of the antigen present as complete empty capsids (75s): 84%
